Measurements: EP2674440A2

Columns and labels:
[1] = biological target: fusion protein containing the A3B3 domain of CEA (UniProt P06731); assay: competitive ELISA against HRP-conjugated hMN-14 IgG (1 nM)
CEA = CEA (UniProt P06731); assay: SE-HPLC of 125I-TF2 mixed with a 20-fold molar excess of CEA

TF2 (bispecific antibody)
fold avidity relative to TF1 [1]: 2 fold | % of labeled TF2 shifted to a high molecular weight species (CEA): 95%
